The series is described as follows: label from the status in PepcDB records.

Regarding “MRVSMTLFRSKENHRMLNNFAKLNGGDDVRMGADVPADALVDRLLVGFFYGPSDRLPEVLHVSNQLVRTKESYPFLPFCASQSHIWKPGDPLRHLEPFTLNPWCIIPYVNPRSQDFPFPELNEIKSQQLYFDHLLGIKKLPTMTLDVPKSHHFQPKLSRLKTHHNFPYLADFVIKVPTTIFSFIVAISLLL”, the protein production entry is reported as “failed”.

With “MRVVLQMAPPIASGRGGQGLITCPGHKERRVASLNRIAMARSSRRMIKDLGPEGLEVAEISGKWGQQFPFRSYRRFIYPEYDICAGPYCDAAGEIEQFDLILANQVWEHLDRPYEATLNVLEMLRTGGHFWLAVPFFVPFHAAPMDNSRWSARGLRNFLIECGFAEEEIRAEQWGNRHAALRNLERPWPPVYDPETDPLDNDPDFPICAWAIARKT”, the protein production entry was “failed”.

For “MRWFILCLRKYVDFKGRARRKEFWLFTLFYLIALVIPPAVIIPIAVIYRHTIDIALCIRICVVVEILVIFSLLLPAYAVTVRRLHDTNRSGLWVIASIVPRVLAEGLGVIFGQKWLIQIAEGEFPTLLLINMFLLLIDLCVSILILVMMCERGTEGENRFGPDPLSDGREVLMEPEPGK”, the protein production entry is reported as “failed”.

For “MRWILFILFCLLGAPAHAVSIPGVTTTTTTDSTTEPAPEPDIEQKKAAYGALADVLDNDTSRKELIDQLRTVAATPPAEPVPKIVPPTLVEEQTVLQKVTEVSRHYGEALSARFGQLYRNITGSPHKPFNPQTFSNALTHFSMLAVLVFGFYWLIRLCALPLYRKMGQWARQKNRERSNWLQLPAMIIGAFIIDLLLLALTLFVGQVLSDNLNAGSRTIAFQQSLFLNAFALIEFFKAVLRLIFCPNVAELRPFTIQDESARYWSRRLSWLSSLIGYGLIVAVPIISNQVNVQIGALANVIIMLCMTVWALYLIFRNKKEITQHLLNFAEHSLAFFSLFIRAFALVWHWLASAYFIVLFFFSLFDPGNSLKFMMGATVRSLAIIGIAAFVSGMFSRWLAKTITLSPHTQRNYPELQKRLNGWLSAALKTARILTVCVAVMLLLSAWGLFDFWNWLQNGAGQKTVDILIRIALILFFSAVGWTVLASLIENRLASDIHGRPLPSARTRTLLTLFRNALAVIISTITIMIVLSEIGVNIAPLLAGAGALGLAISFGSQTLVKDIITGVFIQFENGMNTGDLVTIGPLTGTVERMSIRSVGVRQDTGAYHIIPWSSITTFANFVRGIGSVVANYDVDRHEDADKANQALKDAVAELMENEEIRGLIIGEPNFAGIVGLSNTAFTLRVSFTTLPLKQWTVRFALDSQVKKHFDLAGVRAPVQTYQVLPAPGATPAEPLPPGEPTL”, the protein production entry is recorded as “failed”.

In the case of “MRWITRPGWPGNLLALAAGGLTTLALAPFDFWPLVLVSVAMFYLGLRELSPRQALARGWCYGFGLYGAGTSWIYVSIHTYGGASALLAGLLMLLFIAAIALFFALPAWVWARWLRRNEAPLADSLAFAALWLWQEAFRGWFLTGFPWLYSGYSQLDAPLAGLAPVGGVWLISFALGLTAALLCNLHRLRARKSFLAMGVLLLLAPWVAGLALKDHAWTSPSGPPLKVAAMQGNIEQSMKWDPQKLNDQLALYRDMTFRSQQADLIVWPETAVPVLKESAEGYLSMMGKFAADRGAALITGVPVREPTGRGEYSYYNGITVTGQGDGTYFKQKLVPFGEYVPLQDLLRGLISFFDLPMSDFARGPNDQALLQAKGYHIAPFICYEVVYPEFAAGLSAQSDLLLTVSNDTWFGTSIGPLQHLQMAQMRALEAGRWMIRATNNGVTALIDPFGRITVQIPQFERGVLYGEVVPMHELTPYLHWRSWPLAIVCLLLFGWALLAARISKTV”, the protein production result is given as “failed”.

Consider “MRWKLRTAGGLTALALLGGALAGPAARAAEQGSDRLGDLVNPFIGTQNEGNTYPGAAVPFGMVQLSPDTGHNTGYDYTQNHIRGFSLVHLSGVGCRIGGDLPVLPTTGDVTETDYAKYAAGFSHDSERASPGYYRVGLDSGIVAELTATGRTGVQRYTFPATDKANVLLNAGQALHKTVSTDVEVLDDRTVRTRISGSGFCRDTGPYTVYTITRFDRPFTAYGTWHGGTVTEGSAESAAGTGRNGAYARFDATEDRTVEATTALSYVDARGAEVNLRSAEGRSFADVREAARRSWEDRLDDVRVRGGSDTLRRTFYSSLYRSFLAPNIGSDADGRYTGWDHRIHRARGFTYYQNWSLWDTYRTQCQLLALLAPRESRDMAISVLKIDEDGGWLPKWGYGTVETNIMSGDPVTPFLTNAYQQGLLKGYEEQAYRALAKNADGLPPAAYPGVGRDGNREYIADGFVPYIKGGPHAKPGDSDYAHGASATMEYALSDAMLSRMARDLGHDADAERYTARSRNYRTLFDASTGFFRARDTSGAFAGPADPADSEGFHEGTAWQYQWLVPQDLPGLVDLIGGKQAANDRLDAFFAYEQLLQDPARTAREVWVDGPYEYYNSDKYNPQNEPDLIAPYTYLSTGQPWKTTDVVHAALTLFTDTPTGMTGNDDLGTMSAWHVLSSIGLFPVQPGYDTWGLSTPVFERVDLRLDRGYYPRGTLTVTAPGTSDRDRYIQSVRVDGASHDRTYLTTRVLRGLEALHFAVGARPSAWGTAPHAAPPALK”, for which the protein production entry was “failed”.

Consider “MRYLADHDDLTGLHNRRALLQHLDQRLAPGQPGPVAALFLDLDRLKAINDYLGHAAGDQFIHVFAQRIGDALVGESLIARLGGDEFVLIPASPMSADAAQPLAERLRDQLKDHVAIGGEVLTRTVSIGVASGTPGQHTLEHHHHHH”, for which the protein production entry is “not failed”.

Take “MRYLLIILAFWLPLQSHAVEFDENTRFLPLGRAVQVFEDPTGTATIDSVSSPAGAQAFRPAPAGTFNAGYSRSAFWLKVELSYRPADADIHNDWLLELAYPPMDRVDFYAPDANGRPTLTWQTGDMLPFASRQFAQNNYLFQLELPPGQTRTLYVRISSEGSVQAPLNLWSTHAYLEAQPTKIYVFGLIYGVLLGMLVYNLFIYLSVREPDYLYYLLYVAAFGLYQMSINGVAIEYLWPDSPWWANASTPFLMALATLFACQFTRSFLGTVRLGRWLDRSLLTLIGAAVLVMCIALFLSYGPALRAATQLVMAGALTIYLAGIVAVVKGERVGRYFVLAWSVFMIGGLVFGLMLMGYMPNTFLTMYASHIGTLLEMAFLSMALADRINHARYQQEQTLLAYGKDLERLNQQLATSNRLKDEFLATLTHELRTPMNGVIGSLEVMQTLDMDDEVEMYQQTAASSARDMMSMINGILTLTELQAGVLYAECSAFAPVDLVDRLRERFSGAAQSKGLTLTLDLDDKLPPGIRGDAGKLYQCLECLVDNAIKFTRKGAVQVRFSGQPQDLERMYLRVEVMDSGIGFSHLDEALLYQHFLQVDGSMTREYGGLGIGLAICRKLVELQGGELSHRSEPGKGSCFTLSIPMLMAVPGAVRRAPEAKAQWGHVSRS”: the protein production entry is “failed”.

Turning to “MRYRNSRQVTGVVKNVTVSQSCGKWYISIQAESEVSTPVHPSASMVGLDAGVAKLASLSDGTVFEPVNSFQKNQKTLARLQRQLSRKVKFSNNWQKQKRKIQRLHSCIANIRRDYLHKVTTTVSKNHVMIVIEDLKVSNMSKSAAGTVSQPGRNVRAKSGLNRSILDQGWYEMRRQLEYKQLWRGGQVLAVPPAYTSQRCACCGHTAKENRLSQSKFRCQVCGYTANADVNGARNILAAGHAVLACGEMVQSGRSLKQEPTEMIQATALEHHHHHH”, the protein production entry is reported as “failed”.

Turning to “MSAAQAVDDVPLEHAGNDVSDRMSLQRGVQLYMNYCVGCHSLKYLRYSRIAADLGLSEVQVMSTLNVTGAKFGDTIMTGMPVDTSEQWFGKIPPDLSLVARVRGSDWIYTYLRSFYVDSTRPLGWNNRLFVDVSMPNPLSHLQGVQRAEYGGASQAGADRLVTGLVLVQPGQQSPAEFDQTLRDIVNFLQYAAEP”, the protein production entry was “failed”.

Regarding “MSADHDEGLRRAQRLHLSGDADGAERAYRALLDDAALGAPAAHWLGFLLMQQGRLDEALAWLERVVAADDGHAEWHFNLGLVRARLGRSEEAVFALREAARRDPSRYFYWTNLGAQLMRGGQDAEAEQALRRAASLDPHCPDAFYLLTEMLLRQGRHAEARRCNAQGVLAEPPGKMAPIAVGQALCELGRSEEARSLAQSWLLAQPGHPVARHMLAAFGGGDAPADGDDEYVGCAFDAAAASFDQDLSRLRYQGPSWTAACLAGLSLAPKSLSALDLGCGTGLIGEVLQPWASRLDGVDLSAGMLARAGAKGIYDSLEQAELRAFLRQTDRTYQLIACMDTLPYLGELDALFMLLAERMAPGGLLLFCTESLEDGEAGDGRLHHSGRYRHHSRYLDRLLAVGWDVLERARMPVRDEAGCPVWGDFVCARKVFAA”, the protein production entry is listed as “failed”.

For the sequence “MSAEFIDSLAVMLLALGMTTAIGGMYFLFSALGNEKRIEGLLMPAVGVGLFDFMSGFVMSFTWPLPSSYNMLFGDPLLMAGLLLMISAIAYYKHYDISSVSILLFFLGIYVIIEAVGIVNYHLESGDNLLAAMGLYIVDGIAAILSPIMYIDQKKGKIAYMIEAAILIIGTLIALFIGYTAIYGHLLDFIKYFP”, the protein production result was “failed”.

Turning to “MSAEVETSEGVDESEKKNSGALEKENQMRMADLSELLKEGTKEAHDRAENTQFVKDFLKGNIKKELFKLATTALYFTYSALEEEMERNKDHPAFAPLYFPMELHRKEALTKDMEYFFGENWEEQVQCPKAAQKYVERIHYIGQNEPELLVAHAYTRYMGDLSGGQVLKKVAQRALKLPSTGEGTQFYLFENVDNAQQFKQLYRARMNALDLNMKTKERIVEEANKAFEYNMQIFNELDQAGSTLARETLEDGFPVHDGKGDMRKCPFYAAEQDKGALEGSSCPFRTAM”, the protein production entry is on record as “not failed”.

Regarding “MSAFDFNFQPSINQQDVLDFTDLRFIGKYENIVFLDSNVVSKNRISTYFIKCHHLKENLRKAKLENSLENRLKHYSKYKLLIIDEIGYLPIGSEAAKIFFQINRFKVLEHHHHHH”, the protein production result was “not failed”.

For “MSAHQGSETVTFGDSSAERPLGRSIMRGMANRCPACGSGRLFRAFLKPVDACAACGEEMHHHRSDDLPPYISIVIIGHIAVGGFMMTDMILNIPMWAHFAIWVPITILAALLTLQPIKGGVIGLQWALRMHGFDRKQPKVQIDGSSH”, the protein production result is on record as “failed”.

In the case of “MSAHRPAAATPAAAAPSKRERFLSLDVFRGLTIFLMILVNTAGPGAQAYAQLTHAAWFGFTLADLVFPSFLFAVGSAMSFALATNTPHLQFLGRVSRRAALILLCGVLMYWFPFFHLQPDGGWAFTTVDQLRLTCVLQRIGLCYLAAALLVRYLPPRGIAPVCLALLLGYWALLYAFGQPGAELSKTGNAGTRLDLWLYGRDHLYRKDGGFDPEGLLGTLSATVNVLAGYLCGRFLQRHGKTIASTRSLLLAGAGLVLLALLWAPAWPLSKKLWSGSFVACTVGLDLLALGALVYLLELRGWTGGSGFFTVLGRNPLAIYLFSELFVVVLRLIPAGSSGLDLYAWAGIGVFQTIAPGPLGSLLCALSYTLMCCAVGWWMDRRRWYLRL”, the protein production entry is “failed”.

Consider “MSAISPNGAEEHPIGLTLNGQRLTLQVNPWTTLLDLLREQLDLVGTKKGCDHGQCGACTVLRDGKRVNACLTLAIMCDGAELVTIEGLASGDVLHPMQRAFITHDAFQCGYCTPGQICSAVGLAREGRAYTREAIREQMSGNLCRCGAYSNIVAAVEEALPLMTDLAPPQRGPNP”, for which the protein production result is recorded as “failed”.

“MSAKKLFIQTLGCAMNVRDSEHMIAELTQKENYALTEDIKEADLILINTCSVREKPVHKLFSEVGGFEKVKKEGAKIGVCGCTASHLGNEIFKRAPYVDFVLGARNISKITQAIKTPKFMGVDIDYDESEFAFADFRNSIYKSYINISIGCDKHCTYCIVPHTRGDEISIPFNIIYKEAQKAIEKGAKEIFLLGQNVNNYGKRFRNEHKKMDFSDLLEELSTIEGLERIRFTSPHPLHMDDKFLEVFANNPKVCKSMHMPLQSGSSEILKAMKRGYTKEWYLNRALKLRELCPNVSISTDIIVAFPGESEKDFEETVDVLEKVRFEQIFSFKYSKRPLTKAATMPNQIDEEIASRRLSTLQNRHSEILDKIVKKQENKTFKVLFEELRAGNSIAGRTDNNFLVQVEGSEELLGQFKEVKITNAKRMVLYGEIVLEHHHHHH”: the protein production result was “failed”.

The record behind these values is a protein production outcome set (Wang et al. 2014).
